Experimental data from patent publication US20160317644A1.
Read-outs that look alike come from different tables or passages of the source.

B1: Dengue virus type 2 (DEN2; 16681) nonstructural protein 1 (NS1), recombinant, full-length, glycosylated, P29990 776-1127 (protein)
chain: DSGCVVSWKNKELKCGSGIFITDNVHTWTEQYKFQPESPSKLASAIQKAHEEGICGIRSVTRLENLMWKQITPELNHILSENEVKLTIMTGDIKGIMQAGKRSLRPQPTELKYSWKTWGKAKMLSTESHNQTFLIDGPETAECPNTNRAWNSLEVEDYGFGVFTTNIWLKLKEKQDVFCDSKLMSAAIKDNRAVHADMGYWIESALNDTWKIEKASFIEVKNCHWPKSHTLWSNGVLESEMIIPKNLAGPVSQHNYRPGYHTQITGPWHLGKLEMDFDFCDGTTVVVTEDCGNRGPSLRTTTASGKLITEWCCRSCTLPPLRYRGEDGCWYGMEIRPLKEKEENLVNSLVTA

Columns and labels:
[1] = target: transmembrane proteins of the replication complex; test: cell-based or functional assay
[2] = target: transmembrane proteins of the replication complex; test: cell-based or functional assay; remark: listed apart in the source

| Molecule | Plaque size [1] [mm] | Titer (PFU/mL) [1] [PFU/mL] | Plaque size [2] [mm] | Titer (PFU/mL) [2] [PFU/mL] |
| --- | --- | --- | --- | --- |
| DEN2 NS1 F160A (from UniProt P29990 776-1127) | 1 | 6000 |  |  |
| B1 |  |  | 3 | 4.8e+06 |
